The text below walks through data of US20190322730A1 (NGM BIOPHARMACEUTICALS, published 2019).

Assay [1] addresses T1, human complement component C3 (human, UniProt P01024 23-667; P01024 672-1663).
T1 construct: also called human C3
Briefly: SPR (Biacore), antibody captured by anti-Fc, C3 injected 0.62-40 nM, 37 C. As for the experimental part:
(§1) The binding affinities of exemplary anti-C3 antibodies to human C3 and cyno C3 were measured using a Biacore system (GE Healthcare LifeSciences). Briefly, anti-Fc antibody (Sigma-Aldrich) was immobilized on all four flow cells of a CM5 chip using amine coupling reagents (GE Healthcare LifeSciences). Antibodies were captured on flow cells 2, 3, and 4 using flow cell 1 as a reference. Concentrations ranging from 0.62-40 nM of human C3 or cyno C3 were injected at a flow rate of 50 μL/min at 37° C. Kinetic data were collected over time and fit using the simultaneous global fit equation to yield affinity constants (KD values) for each antibody.
A general note: Surface plasmon resonance follows binding to a sensor surface in real time, without labels.

Assay [2] has as its target T2, cynomolgus monkey complement component C3 (cynomolgus monkey, UniProt P01024 24-1663 (human entry)).
T2 construct: In the hemolysis assays cyno serum was the source of C3; also called cyno C3
The assay is described as above. As for the experimental part:
as §1

In another assay the target is C3b (human, UniProt P01024 23-667; P01024 749-1663). Briefly: binding screen of Example 5; method and unit not stated.
For assay [3], the target named is T3, C3a (human, UniProt P01024 672-748). The description is as above.
Assay [4] deals with T1, human complement component C3. The assay is described as above.
The target in assay [5] is T4, C3d (UniProt P01024 1002-1303, limits assumed).
T4 construct: domain: C3d
Described as above.

The target of assay [6] is T5, Factor Bb (UniProt P00751 260-764).
T5 construct: domain: Factor Bb
Described as above.

For assay [7], the target named is T1, human complement component C3. Briefly: cell-based or functional assay.
The target in assay [8] is T2, cynomolgus monkey complement component …. Description: cell-based or functional assay.
The target of assay [9] is T1, human complement component C3. Briefly: SPR (Biacore), antibody captured by anti-Fc, C3 injected, 37 C. How it is done: as §1
(§2) A Biacore system was used to assess the binding affinities of the different molecules to human C3. […] Human C3 (concentration range 12-100 nM) was injected at a flow rate of 50 μL/min.

For assay [10] the target is unchanged. Briefly: cell-based or functional assay. This is another data set of the same source.
Assay [11] shares this target. Briefly: SPR (Biacore). As for the experimental part: as §1
Assay [12] shares this target. Briefly: cell-based or functional assay. This is another data set of the same source.
Assay [13] shares this target. Description: SPR (Biacore), antibody captured by anti-Fc, C3 injected, 25 C; 25° C. How it is done: as §1, §2
The target is the same in assay [14]. Briefly: cell-based or functional assay. This is another data set of the same source.
The target of assay [15] is T2, cynomolgus monkey complement component …. Briefly: cell-based or functional assay. The source holds these as a separate data set.
The target is the same in assay [16]. Briefly: SPR (Biacore), 37 C. As for the experimental part: as §1
The target in assay [17] is T1, human complement component C3. Briefly: SPR (Biacore); Intact antibody.
Assay [18] shares this target. Briefly: cell-based or functional assay. The source holds these as a separate data set.
In assay [19] the target is T3, C3a. Description: binding screen of Example 5, relative to control mIgG2.
For assay [20], the target named is T4, C3d. Described as above.
Assay [21] has as its target T5, Factor Bb. Described as above.
Assay [22] addresses T1, human complement component C3. Description: SPR (Biacore), 37 C. How it is done:
as §1

The target is the same in assay [23]. Briefly: SPR (Biacore). This is another data set of the same source.

T2 sequence (P01024 other isoform, or with tags, fused parts or gaps): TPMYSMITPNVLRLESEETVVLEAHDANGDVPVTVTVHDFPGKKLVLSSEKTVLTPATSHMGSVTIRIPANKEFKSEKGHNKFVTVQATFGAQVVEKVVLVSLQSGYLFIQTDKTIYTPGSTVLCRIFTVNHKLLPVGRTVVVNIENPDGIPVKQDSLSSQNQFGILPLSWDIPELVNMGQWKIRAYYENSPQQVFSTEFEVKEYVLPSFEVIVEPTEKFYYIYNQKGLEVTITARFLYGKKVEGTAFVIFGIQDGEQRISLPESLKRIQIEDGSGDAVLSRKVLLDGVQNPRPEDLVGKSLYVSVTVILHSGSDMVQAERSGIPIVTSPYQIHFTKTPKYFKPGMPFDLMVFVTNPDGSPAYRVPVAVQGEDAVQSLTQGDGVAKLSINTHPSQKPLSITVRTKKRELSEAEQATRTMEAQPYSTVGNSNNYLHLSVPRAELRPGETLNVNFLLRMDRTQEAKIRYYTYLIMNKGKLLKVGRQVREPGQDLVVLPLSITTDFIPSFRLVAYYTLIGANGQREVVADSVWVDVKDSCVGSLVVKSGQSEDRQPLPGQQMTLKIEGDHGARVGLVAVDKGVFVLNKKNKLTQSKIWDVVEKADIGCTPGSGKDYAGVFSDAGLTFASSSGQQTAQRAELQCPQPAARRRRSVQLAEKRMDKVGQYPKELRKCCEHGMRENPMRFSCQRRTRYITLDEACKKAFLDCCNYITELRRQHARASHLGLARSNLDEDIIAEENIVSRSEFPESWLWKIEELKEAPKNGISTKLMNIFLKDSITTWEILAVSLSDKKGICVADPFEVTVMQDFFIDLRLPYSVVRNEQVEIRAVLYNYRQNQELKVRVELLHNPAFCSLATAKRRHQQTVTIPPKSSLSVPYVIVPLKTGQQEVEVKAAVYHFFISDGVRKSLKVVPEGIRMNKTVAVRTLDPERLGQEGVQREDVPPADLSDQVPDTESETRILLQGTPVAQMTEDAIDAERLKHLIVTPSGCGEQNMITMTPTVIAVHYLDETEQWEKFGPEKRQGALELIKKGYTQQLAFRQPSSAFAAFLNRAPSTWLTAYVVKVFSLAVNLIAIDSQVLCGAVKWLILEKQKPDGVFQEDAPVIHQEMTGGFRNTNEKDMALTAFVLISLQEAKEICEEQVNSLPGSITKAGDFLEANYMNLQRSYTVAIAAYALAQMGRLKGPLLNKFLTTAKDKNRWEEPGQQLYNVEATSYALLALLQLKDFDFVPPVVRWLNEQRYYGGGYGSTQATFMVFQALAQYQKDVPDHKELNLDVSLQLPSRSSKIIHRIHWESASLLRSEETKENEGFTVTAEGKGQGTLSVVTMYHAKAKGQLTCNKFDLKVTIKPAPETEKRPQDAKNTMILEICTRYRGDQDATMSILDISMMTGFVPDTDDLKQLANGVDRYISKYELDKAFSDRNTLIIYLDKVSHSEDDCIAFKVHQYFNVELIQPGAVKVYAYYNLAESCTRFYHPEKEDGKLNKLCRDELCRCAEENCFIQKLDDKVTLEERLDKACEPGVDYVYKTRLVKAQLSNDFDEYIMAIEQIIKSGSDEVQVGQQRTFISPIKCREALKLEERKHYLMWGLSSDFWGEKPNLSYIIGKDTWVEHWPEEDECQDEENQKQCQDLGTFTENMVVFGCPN
T3 sequence (P01024 672-748 limits assumed): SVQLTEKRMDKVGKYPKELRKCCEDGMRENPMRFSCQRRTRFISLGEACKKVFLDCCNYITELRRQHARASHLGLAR
T1 sequence (P01024 23-667, chain 1 of 2): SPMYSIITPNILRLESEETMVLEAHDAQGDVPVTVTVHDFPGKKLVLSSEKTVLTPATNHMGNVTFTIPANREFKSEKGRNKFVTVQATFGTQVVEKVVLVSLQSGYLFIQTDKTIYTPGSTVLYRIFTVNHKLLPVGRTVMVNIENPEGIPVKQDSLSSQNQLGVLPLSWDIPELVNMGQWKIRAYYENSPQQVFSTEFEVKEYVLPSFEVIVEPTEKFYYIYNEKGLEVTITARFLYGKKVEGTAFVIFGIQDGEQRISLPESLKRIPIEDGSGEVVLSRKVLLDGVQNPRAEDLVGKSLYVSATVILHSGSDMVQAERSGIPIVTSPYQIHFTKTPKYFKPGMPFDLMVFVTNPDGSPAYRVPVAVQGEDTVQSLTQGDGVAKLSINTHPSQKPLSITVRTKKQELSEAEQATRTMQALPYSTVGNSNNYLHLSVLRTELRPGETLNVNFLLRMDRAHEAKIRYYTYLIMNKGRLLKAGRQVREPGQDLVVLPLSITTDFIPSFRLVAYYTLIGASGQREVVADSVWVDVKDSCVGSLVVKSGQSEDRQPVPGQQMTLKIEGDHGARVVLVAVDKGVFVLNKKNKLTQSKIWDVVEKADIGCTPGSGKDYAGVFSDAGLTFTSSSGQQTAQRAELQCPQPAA
T1 sequence (P01024 672-1663, chain 2 of 2): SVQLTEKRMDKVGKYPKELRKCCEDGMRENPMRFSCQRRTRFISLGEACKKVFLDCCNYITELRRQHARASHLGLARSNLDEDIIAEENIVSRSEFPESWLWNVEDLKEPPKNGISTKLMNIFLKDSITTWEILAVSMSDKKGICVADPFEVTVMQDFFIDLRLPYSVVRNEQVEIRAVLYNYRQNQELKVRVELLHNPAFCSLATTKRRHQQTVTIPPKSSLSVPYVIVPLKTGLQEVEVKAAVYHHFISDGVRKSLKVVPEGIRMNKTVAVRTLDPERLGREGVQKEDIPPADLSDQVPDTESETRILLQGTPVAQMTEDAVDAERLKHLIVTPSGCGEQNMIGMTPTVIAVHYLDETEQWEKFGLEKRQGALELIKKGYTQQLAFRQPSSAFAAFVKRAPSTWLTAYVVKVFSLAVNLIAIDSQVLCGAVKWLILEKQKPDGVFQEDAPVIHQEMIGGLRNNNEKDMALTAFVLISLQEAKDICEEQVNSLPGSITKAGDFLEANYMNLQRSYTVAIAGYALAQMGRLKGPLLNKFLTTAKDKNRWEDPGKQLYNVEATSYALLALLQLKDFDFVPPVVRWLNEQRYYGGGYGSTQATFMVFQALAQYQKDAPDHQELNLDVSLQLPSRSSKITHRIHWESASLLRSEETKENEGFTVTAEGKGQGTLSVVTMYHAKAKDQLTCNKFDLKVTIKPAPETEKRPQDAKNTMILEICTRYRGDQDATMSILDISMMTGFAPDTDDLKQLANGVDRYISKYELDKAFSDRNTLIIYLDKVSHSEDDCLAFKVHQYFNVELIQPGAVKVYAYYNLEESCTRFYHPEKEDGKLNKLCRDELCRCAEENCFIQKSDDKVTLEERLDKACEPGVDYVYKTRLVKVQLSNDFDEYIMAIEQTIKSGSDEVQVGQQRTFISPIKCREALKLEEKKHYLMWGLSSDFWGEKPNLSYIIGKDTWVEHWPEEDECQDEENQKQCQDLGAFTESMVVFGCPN
T5 sequence (P00751 260-764 limits assumed): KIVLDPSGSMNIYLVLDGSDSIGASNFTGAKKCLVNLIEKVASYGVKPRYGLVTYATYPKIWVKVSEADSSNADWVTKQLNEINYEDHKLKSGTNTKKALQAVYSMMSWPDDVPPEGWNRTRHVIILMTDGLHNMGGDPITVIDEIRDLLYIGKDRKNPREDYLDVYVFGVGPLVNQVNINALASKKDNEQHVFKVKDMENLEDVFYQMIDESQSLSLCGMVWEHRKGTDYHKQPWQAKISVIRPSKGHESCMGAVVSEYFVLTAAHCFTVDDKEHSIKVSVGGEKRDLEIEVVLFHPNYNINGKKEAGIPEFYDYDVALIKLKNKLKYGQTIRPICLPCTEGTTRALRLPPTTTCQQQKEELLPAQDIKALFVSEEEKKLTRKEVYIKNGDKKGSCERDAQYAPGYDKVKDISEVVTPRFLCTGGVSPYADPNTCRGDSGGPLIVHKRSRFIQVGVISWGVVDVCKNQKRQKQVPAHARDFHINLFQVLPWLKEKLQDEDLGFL
T4 sequence (P01024 1002-1303 limits assumed): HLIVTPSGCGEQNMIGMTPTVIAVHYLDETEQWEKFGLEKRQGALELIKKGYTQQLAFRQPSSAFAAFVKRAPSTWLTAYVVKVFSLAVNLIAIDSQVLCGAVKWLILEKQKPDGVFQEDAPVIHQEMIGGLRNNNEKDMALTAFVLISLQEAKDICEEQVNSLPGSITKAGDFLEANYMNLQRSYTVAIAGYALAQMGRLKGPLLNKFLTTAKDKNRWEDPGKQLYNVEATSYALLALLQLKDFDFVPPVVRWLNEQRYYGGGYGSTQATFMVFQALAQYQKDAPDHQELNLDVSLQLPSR

B1: antibody 3D8 (antibody, V domains shown)
VH: EIQLQQSGAELVKPGASVKISCKASGYSFTGYNMNWVKQSHGKSLEWIGNINPYYGSTNYNQKFKGKATLTVDKSSTTAYMQLDSLTSEDSAVYYCARGYYGGNYPFAYWGQGTLVTVSA
VL: DIQMTQSPASLSASVGETVTITCRASENIYSYLAWYQQKQGKSPQLLVYNAKTLAEGVPSRFSGSGSGTQFSLKINSLQPEDFGSYYCQHYYGTPYTFGGGSKVEIK
notes: Mouse hybridoma antibody raised against human C3
One may read the Kd as the concentration at which binding is half-saturated. As to B1, the values for the Kd in [1] and in assay [2] were 1.9 nM and 1.4 nM, respectively. For the same molecule, the “binding relative to negative control mIgG2” value with C3b is 0.38; with C3a [3] it was -0.01; in assay [4], 0.47; with C3d [5] it was 0.01; with Factor Bb [6], -0.01. Moreover, the “Hemolytic Assay IC50, Human AP” value in assay [7] was found to be 4.2 nM. For the same molecule, the “Hemolytic Assay IC50, Human CP” value in assay [7] came out at 3.6 nM. Besides, the “Hemolytic Assay IC50, Cyno AP” value in assay [8] worked out at 5.5 nM.

B2: antibody Hz38G10 (antibody, human IgG1, kappa, V domains shown)
VH: QVQLVQSGAEVKKPGASVKVSCKASGYTFTDFYMDWVRQAPGQRLEWMGYIYPHNGGTTYNQQFTGRVTITVDKSASTAYMELSSLRSEDTAVYYCARRGGFDFDYWGQGTLVTVSS
VL: DIQMTQSPSSLSASVGDRVTITCKASENVDTYVSWYQQKPGKAPKLLIYGASNRYTGVPSRFSGSGSGTDFTFTISSLQPEDIATYHCGQSHSYPLTFGQGTKLEIKR
notes: also called humanized 38G10; Hz38G10 intact antibody
In assay [9], B2 displayed a dissociation constant Kd of 0.28 nM. In assay [10], the “AP human C3 IC50 (hemolysis)” value came to 5.9 nM and the “CP human C3 IC50 (hemolysis)” value is 4 nM. The molecule further gave a Kd in assay [11] of 0.3 nM. In assay [12], the “Alternative Pathway IC50 (hemolysis; run with COMP)” value turned out to be 2.5 nM, the “Alternative Pathway IC50 (hemolysis; run with COMP-PEG)” value was 4 nM, the “Classical Pathway IC50 (hemolysis; run with COMP)” value stood at 2 nM and the “Classical Pathway IC50 (hemolysis; run with COMP-PEG)” value is 4.1 nM. The Kd in assay [13] was under 0.1 nM. Also, in assay [14], the “Alternative Pathway IC50 (hemolysis), Human C3” value was 3.9 nM and the “Classical Pathway IC50 (hemolysis), Human C3” value came to 5.2 nM. In [15], the “Alternative Pathway IC50 (hemolysis), Cyno C3” value is 4.8 nM and the “Classical Pathway IC50 (hemolysis), Cyno C3” value was determined as 0.7 nM. The molecule further gave a Kd in [16] of 1.8 nM. The molecule further returned a Kd in [17] of 0.027 nM. In addition, in [18], the “fold more effective than COMP or COMP-PEG in inhibiting the alternative pathway” value was about 10 fold.

B3: antibody 38G10 (antibody, V domains shown)
VH: EVQLQQSGPELVKPGDSVKMSCKASGYTFTDFYMDWVKQSHGKSLEWIGYIYPHNGGTTYNQNFTGKATLTVDKSSNTAYMELHSLTSEDSAVYYCARRGGFDFDYWGQGTTLTVSS
VL: NIVMTQSPKSMSLSVGERVTLRCKASENVDTYVSWYQQKPEQSPKLLIYGASNRYTGVPDRFTGSGSATEFTLTISSVQAEDLVGYHCGQSHSYPLTFGAGTKLELK
notes: Mouse hybridoma antibody; Parent of Hz38G10; also called parental 38G10 antibody
For B3, the Kd in assay [1] was 0.19 nM; in assay [2], 0.16 nM; in assay [22] it was about 0.1 nM; in assay [16] it was about 0.1 nM. Also, the binding result with C3a [19], with C3d [20] and with Factor Bb [21] was “no binding” throughout. Also, the “binding relative to negative control mIgG2” value in the assay with C3a [3] is 0.02; in assay [4], 0.53; with C3d [5], 0; with Factor Bb [6], 0.01. Besides, the “Hemolytic Assay IC50, Human AP” value in assay [7] was 1.9 nM. Further, the “Hemolytic Assay IC50, Human CP” value in assay [7] is 1.7 nM. Besides, the “Hemolytic Assay IC50, Cyno AP” value in assay [8] was found to be 3.5 nM.

B4: Hz38G10 dsscFv (scFv)
scFv: MDIQMTQSPSSLSASVGDRVTITCKASENVDTYVSWYQQKPGKAPKLLIYGASNRYTGVPSRFSGSGSGTDFTFTISSLQPEDIATYHCGQSHSYPLTFGCGTKLEIKGGGGSGGGGSGGGGSQVQLVQSGAEVKKPGASVKVSCKASGYTFTDFYMDWVRQAPGQCLEWMGYIYPHNGGTTYNQQFTGRVTITVDKSASTAYMELSSLRSEDTAVYYCARRGGFDFDYWGQGTLVTVSS
notes: also called Hz38G10 VL-linker-VH dsscFv
Turning to B4, in [10], the “AP human C3 IC50 (hemolysis)” value amounted to 19.5 nM and the “CP human C3 IC50 (hemolysis)” value worked out at 15.3 nM. In assay [23], this molecule gave a Kd of 0.035 nM.

B5: antibody 62B11 (antibody, V domains shown)
VH: EVKLVESGGGLVQPGGSLKLSCAASGFTFSSYTMSWVRQTPEKRLEWVAYISSGGGTTYYPDTVKGRFTVSRDNAKNTLYLQMSSLRSEDTAMYSCARRYYRGSSLWYFDVWGAGTTVTVSS
VL: DIVMTQSPSSLTVTAGEKVTMSCKSSQSLFNSGSQKNFLTWYQQRPGQPPKLLIYWASTRESGVPDRFTGSGSGTDFTLTISSVQAEDLAVYYCQNDYSYPLTFGAGTKLELK
notes: Mouse hybridoma antibody
Regarding B5, the “binding relative to negative control mIgG2” value with C3b is 0.76; in the assay with C3a [3] it was -0.03; in [4] it was 0.83; in the assay with C3d [5] it was -0.02; with Factor Bb [6], -0.02. Moreover, in [7], the “Hemolytic Assay IC50, Human AP” value amounted to 6.6 nM. Further, the “Hemolytic Assay IC50, Human CP” value in [7] amounted to 4.2 nM. Besides, the “Hemolytic Assay IC50, Cyno AP” value in assay [8] was about 11 nM. In addition, in assay [8], the “Hemolytic Assay IC50, Cyno CP” value is about 1 nM.

B6: antibody 15C12 (antibody, V domains shown)
VH: EIQLQQSGAELEKPGASVKISCKASGYSFTGYNMHWVKQSHGKSLEWIGNINPYYGTTNSNQKFEDKATLTVDKSSSTAYMQLNSLTSEDSAVYYCARGIYYYGTGYPYFDFWGQGTTLTVSS
VL: DIQMTQTTSSLSASLGDRVTISCRASQDINNYLNWYLQKPDGTVKLLIYYTSRLHSGVPSRFSGSGSGTDYSLTISNLEQEDLATYFCQQGITLPWTFGGGTKLEIK
notes: Mouse hybridoma antibody
On to B6, for which the Kd in assay [1] came out at 0.13 nM. In addition, the Kd in assay [2] worked out at 0.13 nM. Moreover, in assay [7], the “Hemolytic Assay IC50, Human AP” value is 3.7 nM and the “Hemolytic Assay IC50, Human CP” value was determined as 3.8 nM. In addition, the “Hemolytic Assay IC50, Cyno AP” value in assay [8] is 8.8 nM.
